Columns and labels:
[1] = molecular target: PaSOD-1 (Cys-less CuZnSOD from Paenibacillus lautus NBRC 15380, WP_246059278.1 without the predicted signal peptide) (Paenibacillus lautus NBRC 15380); experiment: SEC-MALS; apo form; 20 μM protein in MN buffer (50 mM Mops, 100 mM NaCl, pH 7.0); Cosmosil 5Diol-300-II column, miniDAWN TREOS
[2] = molecular target: PaSOD-1 (Cys-less CuZnSOD from Paenibacillus lautus NBRC 15380, WP_246059278.1 without the predicted signal peptide) (Paenibacillus lautus NBRC 15380); experiment: SEC-MALS; holo form (copper and zinc bound); 20 μM protein in MN buffer (50 mM Mops, 100 mM NaCl, pH 7.0); Cosmosil 5Diol-300-II column, miniDAWN TREOS
[3] = molecular target: PaSOD-2 (Cys-less CuZnSOD from Paenibacillus lautus NBRC 15380, WP_246059286.1 without the predicted signal peptide) (Paenibacillus lautus NBRC 15380); experiment: SEC-MALS; apo form; 20 μM protein in MN buffer (50 mM Mops, 100 mM NaCl, pH 7.0); Cosmosil 5Diol-300-II column, miniDAWN TREOS
[4] = molecular target: PaSOD-2 (Cys-less CuZnSOD from Paenibacillus lautus NBRC 15380, WP_246059286.1 without the predicted signal peptide) (Paenibacillus lautus NBRC 15380); experiment: SEC-MALS; holo form (copper and zinc bound); 20 μM protein in MN buffer (50 mM Mops, 100 mM NaCl, pH 7.0); Cosmosil 5Diol-300-II column, miniDAWN TREOS

Row | stoichiometry N [1] | stoichiometry N [2] | stoichiometry N [3] | stoichiometry N [4] | Substance
1 | 2 | 2 | – | – | PaSOD-1 (Cys-less CuZnSOD from Paenibacillus lautus NBRC 15380, WP_246059278.1 without the predicted signal peptide) (enzyme)
2 | – | – | 2 | 2 | PaSOD-2 (Cys-less CuZnSOD from Paenibacillus lautus NBRC 15380, WP_246059286.1 without the predicted signal peptide) (enzyme)

Reference: article PMC10432803
